According to US20200317768A1 (published 2020):

T1: Human latent myostatin (human, UniProt O14793 25-266; O14793 267-375)
T1 construct: also called human myostatin latent form
T1 sequence 1: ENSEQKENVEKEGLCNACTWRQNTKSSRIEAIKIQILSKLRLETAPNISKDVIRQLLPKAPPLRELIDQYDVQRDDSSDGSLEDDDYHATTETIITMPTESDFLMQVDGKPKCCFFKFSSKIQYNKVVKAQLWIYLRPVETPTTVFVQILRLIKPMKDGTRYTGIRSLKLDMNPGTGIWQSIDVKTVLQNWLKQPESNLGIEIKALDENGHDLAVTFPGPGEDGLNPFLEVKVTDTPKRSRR
T1 sequence 2: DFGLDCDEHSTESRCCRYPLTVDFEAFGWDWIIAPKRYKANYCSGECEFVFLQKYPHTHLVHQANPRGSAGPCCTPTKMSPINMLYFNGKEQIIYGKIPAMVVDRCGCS

T2: Mouse latent myostatin (mouse, UniProt O08689 26-267; O08689 268-376)
T2 construct: Latent form = complex of two propeptides and the mature dimer
T2 sequence 1: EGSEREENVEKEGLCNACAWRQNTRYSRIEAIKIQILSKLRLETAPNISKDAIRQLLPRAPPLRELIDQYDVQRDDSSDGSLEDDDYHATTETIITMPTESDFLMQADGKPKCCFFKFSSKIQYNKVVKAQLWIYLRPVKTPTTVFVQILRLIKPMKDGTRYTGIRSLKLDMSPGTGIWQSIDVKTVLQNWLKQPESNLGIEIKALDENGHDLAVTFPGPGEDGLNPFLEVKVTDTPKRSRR
T2 sequence 2: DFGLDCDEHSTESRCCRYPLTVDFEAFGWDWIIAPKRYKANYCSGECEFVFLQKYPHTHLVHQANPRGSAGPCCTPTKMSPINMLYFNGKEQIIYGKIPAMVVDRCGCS

T3: Cynomolgus monkey latent myostatin (cynomolgus monkey, UniProt Q95J86 25-266; Q95J86 267-375)
T3 construct: Latent form = complex of two propeptides and the mature dimer; also called Cyno latent myostatin
T3 sequence 1: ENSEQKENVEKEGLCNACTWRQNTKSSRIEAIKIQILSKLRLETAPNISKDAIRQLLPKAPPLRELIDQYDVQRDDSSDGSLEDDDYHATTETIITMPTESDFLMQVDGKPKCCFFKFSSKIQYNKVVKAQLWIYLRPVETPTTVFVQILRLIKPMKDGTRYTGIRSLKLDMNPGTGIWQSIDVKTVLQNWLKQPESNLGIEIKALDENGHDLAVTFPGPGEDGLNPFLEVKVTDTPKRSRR
T3 sequence 2: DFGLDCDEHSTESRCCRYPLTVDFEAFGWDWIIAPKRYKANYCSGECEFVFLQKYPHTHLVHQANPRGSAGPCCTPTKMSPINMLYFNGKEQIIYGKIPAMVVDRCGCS

T4: Human latent myostatin (human, UniProt O14793 25-266; O14793 267-375)
T4 construct: Biotinylated in the ELISAs; also called human myostatin latent form
T4 sequence 1: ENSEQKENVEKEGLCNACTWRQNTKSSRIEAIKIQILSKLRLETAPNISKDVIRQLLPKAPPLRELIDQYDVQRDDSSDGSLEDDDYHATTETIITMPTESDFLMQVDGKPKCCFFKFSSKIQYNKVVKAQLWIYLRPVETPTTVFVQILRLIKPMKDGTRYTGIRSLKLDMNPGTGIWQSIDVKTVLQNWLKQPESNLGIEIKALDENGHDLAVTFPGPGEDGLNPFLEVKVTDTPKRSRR
T4 sequence 2: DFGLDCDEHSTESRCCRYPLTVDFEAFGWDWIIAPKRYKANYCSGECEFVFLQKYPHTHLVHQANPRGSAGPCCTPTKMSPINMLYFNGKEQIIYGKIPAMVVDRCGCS


Tests used:
Human latent myostatin [1] = molecular target: T1, Human latent myostatin; test: SPR (BIACORE T200) 37C, pH 5.8, antibody captured by ProA/G
Description: (§1) ProA/G (Pierce) was immobilized onto all flow cells of a CM4 chip using an amine coupling kit (GE Healthcare). All antibodies and analytes were prepared in ACES pH7.4 or pH5.8 buffer containing 20 mM ACES, 150 mM NaCl, 1.2 mM CaCl₂, 0.05% TWEEN®) 20, 0.005% NaN₃. […] Human, cyno, and mouse latent myostatin was injected at 3.125 to 50 nM prepared by two-fold serial dilution, followed by dissociation. The sensor surface was regenerated each cycle with 10 mM Glycine HCl pH1.5. Binding affinity was determined by processing and fitting the data to a 1:1 binding model using BIACORE® T200 Evaluation software, version 2.0 (GE Healthcare).

Mouse latent myostatin [2] = molecular target: T2, Mouse latent myostatin; test: as above
Description: as §1

[3] = molecular target: T3, Cynomolgus monkey latent myostatin; test: as above
Description: as §1

Human latent myostatin [4] = molecular target: T1, Human latent myostatin; test: SPR (BIACORE T200) 37C, pH 7.4, antibody captured by ProA/G
Description: as §1

Mouse latent myostatin [5] = molecular target: T2, Mouse latent myostatin; test: as above
Description: as §1

[6] = molecular target: T3, Cynomolgus monkey latent myostatin; test: as above
Description: as §1

Human latent myostatin [7] = molecular target: T1, Human latent myostatin; test: SPR 37C; KD pH 5.8 / KD pH 7.4
Description: as §1

Mouse latent myostatin [8] = molecular target: T2, Mouse latent myostatin; test: SPR 37C; KD pH 5.8 / KD pH 7.4
Description: as §1

[9] = molecular target: T3, Cynomolgus monkey latent myostatin; test: SPR 37C; KD pH 5.8 / KD pH 7.4
Description: as §1

Human latent myostatin [10] = molecular target: T4, Human latent myostatin; test: SPR (BIACORE), additional dissociation phase at pH5.8 after dissociation at pH7.4, Scrubber 2.0 fit
Description: Each amino acid in the CDRs was individually mutated to histidine using In-Fusion HD Cloning Kit (Clontech Inc, or Takara Bio company) according to the manufacturer's instructions. […] All histidine-substituted variants were evaluated by a modified BIACORE® assay as compared to that described above. Briefly, an additional dissociation phase at pH5.8 was integrated into the BIACORE® assay immediately after the dissociation phase at pH7.4. This is to assess the pH-dependent dissociation between antibody (Ab) and antigen (Ag) from the complexes formed at pH7.4 as opposed to the corresponding dissociation at pH5.8. The dissociation rate at pH5.8 buffer was determined by processing and fitting data using the Scrubber 2.0 (BioLogic Software) curve fitting software.
Antibodies with a combination of these mutations in the CDRs were then generated.

| Binder | Kd (Human latent myostatin [1]) [nM] | Kd (Mouse latent myostatin [2]) [nM] | Kd [3] [nM] | Kd (Human latent myostatin [4]) [nM] | Kd (Mouse latent myostatin [5]) [nM] | Kd [6] [nM] | ratio of KD at pH 5.8/pH 7.4 (Human latent myostatin [7]) | ratio of KD at pH 5.8/pH 7.4 (Mouse latent myostatin [8]) | ratio of KD at pH 5.8/pH 7.4 [9] | koff (Human latent myostatin [10]) [s⁻¹] |
| --- | --- | --- | --- | --- | --- | --- | --- | --- | --- | --- |
| MS_M103240H795-SG1/M103202L1045-SK1 (antibody, human IgG1, kappa, also called MS1032LO19-SG1) heavy: not shown light: DIVMTQSPATLSLSPGERATLSCTTSQSVYHENWLSWFQQKPGQPPKLLIYWASTLAYGVPSRFSGSGSGTDFTLTISSLQPEDAATYYCAGGYGGGRYAFGQGTKVEIKRTVAAPSVFIFPPSDEQLKSGTASVVCLLNNFYPREAKVQWKVDNALQSGNSQESVTEQDSKDSTYSLSSTLTLSKADYEKHKVYACEVTHQGLSSPVTKSFNRGEC | 45.8 | 28.7 | 35.6 | 0.273 | 0.271 | 0.326 | 168 | 106 | 109 | – |
| Ab003 (M103205H009 / M103202L000) (antibody, human IgG1, kappa, V domains shown, Histidine-substituted variant of MS1032LO00-SG1) VH: QVTLKESGPVLVKPTETLTLTCTVSGIDLSSYDISWVRQAPGKGLEWVGIISHAGSTYYASWAKGRLTISKDTSKNQVVLTMTNMDPVDTATYYCARGVPAYSTGGDLWGQGTLVTVSS VL: DIVMTQSPATLSLSPGERATLSCQSSQSVYDNNWLSWFQQKPGQPPKLLIYWASTLASGVPSRFSGSGSGTDFTLTISSLQPEDAATYYCAGGYGGGLYAFGQGTKVEIKR | – | – | – | – | – | – | – | – | – | 0.00088 |
| MS_M103240H1246-SG1/M103202L1045-SK1 (antibody, human IgG1, kappa, V domains shown, also called MS1032LO25-SG1) VH: QVQLVESGGGLVQPGGSLRLSCAVSGIDLSHEDISWVRQAPGKGLEWVSIISYAGSKYYASWAKGRLTISKDTSKNQVVLTMTNMDPVDTATYYCARGVPAYSHGGDLWGQGTLVTVSS VL: DIVMTQSPATLSLSPGERATLSCTTSQSVYHENWLSWFQQKPGQPPKLLIYWASTLAYGVPSRFSGSGSGTDFTLTISSLQPEDAATYYCAGGYGGGRYAFGQGTKVEIKR | 25.5 | 9.88 | 14.1 | 0.276 | 0.259 | 0.34 | 92 | 38 | 41 | – |
| MS_M103205H1057-SG1/M103202L889-SK1 (antibody, human IgG1, kappa, V domains shown, also called MS1032LO12-SG1) VH: QVTLKESGPVLVKPTETLTLTCTVSGIDLSHTDISWVRQAPGKGLEWVGIISYAGSKYKASWAKGRLTISKDTSKNQVVLTMTNMDPVDTATYYCARGVPAYSHGGDLWGQGTLVTVSS VL: DIVMTQSPATLSLSPGERATLSCTSSQSVYHANWLSWFQQKPGQPPKLLIYWASTLAYGVPSRFSGSGSGTDFTLTISSLQPEDAATYYCAGGYGGGRYAFGQGTKVEIKR | 84.9 | 24.8 | 35.8 | 0.407 | 0.413 | 0.492 | 209 | 60 | 73 | – |
| MS_M103205H1004-SG1/M103202L889-SK1 (antibody, human IgG1, kappa, V domains shown, also called MS1032LO07-SG1) VH: QVTLKESGPVLVKPTETLTLTCTVSGIDLSHDDISWVRQAPGKGLEWVGIISYAGSMYYASWAKGRLTISKDTSKNQVVLTMTNMDPVDTATYYCARGVPAYSHGGDKWGQGTLVTVSS VL: DIVMTQSPATLSLSPGERATLSCTSSQSVYHANWLSWFQQKPGQPPKLLIYWASTLAYGVPSRFSGSGSGTDFTLTISSLQPEDAATYYCAGGYGGGRYAFGQGTKVEIKR | 46.2 | 30.8 | 34.7 | 0.275 | 0.319 | 0.339 | 168 | 97 | 102 | – |
| MS_M103205H1046-SG1/M103202L889-SK1 (antibody, human IgG1, kappa, V domains shown, also called MS1032LO10-SG1) VH: QVTLKESGPVLVKPTETLTLTCTVSGIDLSHTDISWVRQAPGKGLEWVGIISYAGKTYYASWAKKRLTISKDTSKNQVVLTMTNMDPVDTATYYCARGVPAYSHGGDLWGQGTLVTVSS VL: DIVMTQSPATLSLSPGERATLSCTSSQSVYHANWLSWFQQKPGQPPKLLIYWASTLAYGVPSRFSGSGSGTDFTLTISSLQPEDAATYYCAGGYGGGRYAFGQGTKVEIKR | 43.8 | 10.9 | 16.1 | 0.351 | 0.334 | 0.419 | 125 | 35 | 38 | – |
| MS_M103205H1795-SG1/M103202L1060-SK1 (antibody, human IgG1, kappa, V domains shown, also called MS1032LO24-SG1) VH: QVTLKESGPVLVKPTETLTLTCTVSGIDLSHDDISWVRQAPGKGLEWVGIISYAGSTYYASWAKGRLTISKDTSKNQVVLTMTNMDPVDTATYYCARGVPAYSHGGDLWGQGTLVTVSS VL: DIVMTQSPATLSLSPGERATLSCTSSQSVFHENWLSWFQQKPGQPPKLLIYWASTLAWGVPSRFSGSGSGTDFTLTISSLQPEDAATYYCAGGYGGGRYAFGQGTKVEIKR | 1.52 | 1.02 | 0.929 | 0.164 | 0.176 | 0.189 | 9 | 6 | 5 | – |
| MS_M103205H1047-SG1/M103202L889-SK1 (antibody, human IgG1, kappa, V domains shown, also called MS1032LO11-SG1) VH: QVTLKESGPVLVKPTETLTLTCTVSGIDLSHTDISWVRQAPGKGLEWVGIISYAGKKYYASWAKGRLTISKDTSKNQVVLTMTNMDPVDTATYYCARGVPAYSHGGDLWGQGTLVTVSS VL: DIVMTQSPATLSLSPGERATLSCTSSQSVYHANWLSWFQQKPGQPPKLLIYWASTLAYGVPSRFSGSGSGTDFTLTISSLQPEDAATYYCAGGYGGGRYAFGQGTKVEIKR | 143 | 29.2 | 43.5 | 0.419 | 0.362 | 0.502 | 341 | 81 | 87 | – |
| MS_M103245H1233-SG1/M103202L1045-SK1 (antibody, human IgG1, kappa, V domains shown, also called MS1032LO23-SG1) VH: QVTLKESGPVLVKPTETLTLTCKVSGIDLSHEDISWVRQAPGKGLEWVSIISYAGSTYYASWAKGRLTISKDTSKNQVVLTMTNMDPVDTATYYCARGVPAYSHGGDLWGQGTLVTVSS VL: DIVMTQSPATLSLSPGERATLSCTTSQSVYHENWLSWFQQKPGQPPKLLIYWASTLAYGVPSRFSGSGSGTDFTLTISSLQPEDAATYYCAGGYGGGRYAFGQGTKVEIKR | 16.1 | 6.4 | 7.71 | 0.26 | 0.266 | 0.299 | 62 | 24 | 26 | – |
